Measurements reported in patent publication US20250376529A1 (Amgen, published 2025).

T1: Rhesus GIPR (rhesus, UniProt F7E1R9 22-466)
T1 sequence: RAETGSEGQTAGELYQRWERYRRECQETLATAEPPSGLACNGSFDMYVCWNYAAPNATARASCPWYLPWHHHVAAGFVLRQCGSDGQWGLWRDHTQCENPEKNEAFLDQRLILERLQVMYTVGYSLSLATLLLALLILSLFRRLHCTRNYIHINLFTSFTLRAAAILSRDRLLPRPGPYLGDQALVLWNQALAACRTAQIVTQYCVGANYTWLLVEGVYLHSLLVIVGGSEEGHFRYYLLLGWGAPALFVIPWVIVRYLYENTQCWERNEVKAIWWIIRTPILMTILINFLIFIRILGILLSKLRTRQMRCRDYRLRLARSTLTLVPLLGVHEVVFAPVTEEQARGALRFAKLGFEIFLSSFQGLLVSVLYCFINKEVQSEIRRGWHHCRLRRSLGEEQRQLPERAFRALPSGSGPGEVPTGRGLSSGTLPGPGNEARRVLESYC

T2: huGIPR ECD (human, UniProt P48546 22-139, limits assumed)
T2 construct: Soluble ECD injected in the MASS-1 assay; also called human GIPR extracellular domain
T2 sequence: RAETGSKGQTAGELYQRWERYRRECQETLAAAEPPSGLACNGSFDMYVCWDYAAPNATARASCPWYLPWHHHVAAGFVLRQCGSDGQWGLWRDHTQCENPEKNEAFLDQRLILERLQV


Target: T1, Rhesus GIPR
Experiment: cell-based or functional assay

Row | Binder | Rhesus GIPR CAMP Assay (Conc. mAb @ 60% Inhibition in nM) [nM]
1 | 4H9.004.003 (antibody, human IgG1, kappa, N297G, V domains shown) VH: not shown VL: DIQMTQSPSSLSASVGDRVTITCRASQGIRNELGWYQQKPGKAPKLLIYGASSLQSGVPSRFSGSGSGTEFTLTISSLQPEDFVTYYCLQHNSYPFTFGQGTKVDVKR | 0.5
2 | 17B11.002 (antibody, human IgG1, lambda, N297G, V domains shown) VH: QMQLVQSGAEVKKPGASVKVSCKASGYTFTSYDINWVRQATGQGLEWMGWMNPNSGNTGYAQKFQGRVTMTRDTSISTAYMELSSLRSQDTAVYYCARGGDYVWGSYRPYYYYYGMDVWGQGTTVTVSS VL: QSVLTQPPSVSAAPGQKVTISCSGSSSNIGNNYVSWYEQFPGTAPKLLIYDNNKRPSGIPDRFSGSKSGTSATLGITGLQTGDEADYYCGTWDSSLSAVVFGGGTKLTVLG | 0.21
3 | 17B11.002.004 (antibody, human IgG1, lambda, N297G, V domains shown) VH: QMQLVQSGAEVKKPGASVKVSCKASGYTFTSYDINWVRQAPGQGLEWMGWMNPNSGGTGYAQKFQGRVTMTRDTSISTAYMELSSLRSDDTAVYYCARGGDYVWGSYRPYYYYYGMDVWGQGTTVTVSS VL: QSVLTQPPSVSAAPGQKVTISCSGSSSNIGNNYVSWYQQLPGTAPKLLIYDNNKRPSGIPDRFSGSKSGTSATLAITGLQTGDEADYYCGTFESSLSAVVFGGGTKLTVLG | 0.17
4 | 17B11.002.003 (antibody, human IgG1, lambda, N297G, V domains shown) VH: QMQLVQSGAEVKKPGASVKVSCKASGYTFTSYDINWVRQATGQGLEWMGWMNPNSGGTGYAQKFQGRVTMTRDTSISTAYMELSSLRSQDTAVYYCARGGDYVWGSYRPYYYYYGMDVWGQGTTVTVSS VL: QSVLTQPPSVSAAPGQKVTISCSGSSSNIGNNYVSWYEQFPGTAPKLLIYDNNKRPSGIPDRFSGSKSGTSATLGITGLQTGDEADYYCGTWDSSLSAVVFGGGTKLTVLG | 0.08
5 | 17B11.002.002 (antibody, human IgG1, lambda, N297G, V domains shown) VH: QMQLVQSGAEVKKPGASVKVSCKASGYTFTSYDINWVRQATGQGLEWMGWMNPNSGNTGYAQKFQGRVTMTRDTSISTAYMELSSLRSQDTAVYYCARGGDYVWGSYRPYYYYYGMDVWGQGTTVTVSS VL: QSVLTQPPSVSAAPGQKVTISCSGSSSNIGNNYVSWYQQLPGTAPKLLIYDNNKRPSGIPDRFSGSKSGTSATLGITGLQTGDEADYYCGTWDSSLSAVVFGGGTKLTVLG | 0
6 | 2F11.002 (antibody, human IgG1, kappa, N297G, V domains shown) VH: not shown VL: DIQMTQSPSSLSASVGDRVTITCQASQDISNYLNWYQQKPGKAPKLLIYDASNLETGVPSRFSGSGSGTDFSLTISSLQPEDFATYYCQQYDILLTFGGGTKVEIKR | 40
7 | 2F11.006 (antibody, human IgG1, kappa, N297G, V domains shown) VH: QVQLVESGGGVVQPGRSLRLSCAASGFTFSSYGMHWVRQAPGKGLEWVAVIWYDASNKYYADAVKGRFTISSDNSKNTLYLQMNSLRAEDTAVYYCARDRTIFGVVLDYWGQGTLVTVSS VL: DIQMTQSPSSLSASVGDRVTITCQASQDISNYLNWYQQKPGKAPKLLIYDASNLETGVPSRFSGSGSGTDFSLTISSLQPEDIATYYCQQYDILLTFGGGTKVEIKR | 1.3
8 | 2F11.005 (antibody, human IgG1, kappa, N297G, V domains shown) VH: not shown VL: DIQMTQSPSSLSASVGDRVTITCQASQDISNYLNWYQQKPGKAPKLLIYDASNLETGVPSRFSGSGSGTDFSFTISSLQPEDFATYYCQQYDILLTFGGGTKVEIKR | 68.6
9 | 2F11.010 (antibody, human IgG1, kappa, N297G, V domains shown) VH: not shown VL: DIQMTQSPSSLSASVGDRVTITCQASQDISNYLNWYQQKPGKAPKLLIYDASNLETGVPSRFSGSGSGTDFSLTISSLQPEDFATYYCQQYDILLTFGGGTKVEIKR | 8.24
10 | 2F11.009 (antibody, human IgG1, kappa, N297G, V domains shown) VH: QVQLVESGGGVVQPGRSLRLSCAASGFTFSSYGMHWVRQAPGKGLEWVAVIWYDASNKYYADSVKGRFTISRDNSKNTLYLQMNSLRAEDTAVYYCARDRTIFGVVLDYWGQGTLVTVSS VL: DIQMTQSPSSLSASVGDRVTITCQASQDISNYLNWYQQKPGKAPKLLIYDASNLETGVPSRFSGSGSGTDFSLTISSLQPEDFATYYCQQYDILLTFGGGTKVEIKR | 36.9
11 | 2F11.003 (antibody, human IgG1, kappa, N297G, V domains shown) VH: QVQLVESGGGVVQPGRSLRLSCAASGFTFSSYGMHWVRQAPGKGLEWVAVIWYDASNKYYADAVKGRFTISSDNSKNTLYLQMNSLRAEDTAVYYCARDRTIFGVVLDYWGQGTLVTVSS VL: DIQMTQSPSSLSASVGDRVTITCQASQDISNYLNWYQQKPGKAPKLLIYDASNLETGVPSRFSGSGSGTDFSLTISSLQPEDFATYYCQQYDILLTFGGGTKVEIKR | 1.79
12 | 2F11.004 (antibody, human IgG1, kappa, N297G, V domains shown) VH: not shown VL: DIQMTQSPSSLSASVGDRVTITCQASQDISNYLNWYQQKPGKAPKLLIYDASNLETGVPSRFSGSGSGTDFSLTISSLQPEDIATYYCQQYDILLTFGGGTKVEIKR | 35.5
13 | 2F11.008 (antibody, human IgG1, kappa, N297G, V domains shown) VH: not shown VL: DIQMTQSPSSLSASVGDRVTITCQASQDISNYLNWYQQKPGKAPKLLIYDASNLETGVPSRFSGSGSGTDFSFTISSLQPEDIATYYCQQYDILLTFGGGTKVEIKR | 57.4
14 | 2F11.007 (antibody, human IgG1, kappa, N297G, V domains shown) VH: QVQLVESGGGVVQPGRSLRLSCAASGFTFSSYGMHWVRQAPGKGLEWVAVIWYDASNKYYADAVKGRFTISSDNSKNTLYLQMNSLRAEDTAVYYCARDRTIFGVVLDYWGQGTLVTVSS VL: DIQMTQSPSSLSASVGDRVTITCQASQDISNYLNWYQQKPGKAPKLLIYDASNLETGVPSRFSGSGSGTDFSFTISSLQPEDFATYYCQQYDILLTFGGGTKVEIKR | 1.82

Results, then the binder that gave them:

Row | Rhesus GIPR CAMP Assay (Conc. mAb @ 60% Inhibition in nM) [nM] | Binder
15 | 0.08 | 17B11.002.005 (antibody, human IgG1, lambda, N297G, V domains shown) VH: QMQLVQSGAEVKKPGASVKVSCKASGYTFTSYDINWVRQATGQGLEWMGWMNPNSGGTGYAQKFQGRVTMTRDTSISTAYMELSSLRSQDTAVYYCARGGDYVWGSYRPYYYYYGMDVWGQGTTVTVSS VL: QSVLTQPPSVSAAPGQKVTISCSGSSSNIGNNYVSWYQQLPGTAPKLLIYDNNKRPSGIPDRFSGSKSGTSATLAITGLQTGDEADYYCGTWDSSLSAVVFGGGTKLTVLG
16 | 7.89 | 17B11.002.008 (antibody, human IgG1, lambda, N297G, V domains shown) VH: QMQLVQSGAEVKKPGASVKVSCKASGYTFTSYDINWVRQAPGQGLEWMGWMNPNSGGTGYAQKFQGRVTMTRDTSISTAYMELSSLRSDDTAVYYCARGGDYVFGSYRPYYYYYGMDVWGQGTTVTVSS VL: QSVLTQPPSVSAAPGQKVTISCSGSSSNIGNNYVSWYQQLPGTAPKLLIYDNNKRPSGIPDRFSGSKSGTSATLAITGLQTGDEADYYCGTFESSLSAVVFGGGTKLTVLG
17 | 0 | 17B11.002.006 (antibody, human IgG1, lambda, N297G, V domains shown) VH: QMQLVQSGAEVKKPGASVKVSCKASGYTFTSYDINWVRQAPGQGLEWMGWMNPNSGNTGYAQKFQGRVTMTRDTSISTAYMELSSLRSDDTAVYYCARGGDYVWGSYRPYYYYYGMDVWGQGTTVTVSS VL: QSVLTQPPSVSAAPGQKVTISCSGSSSNIGNNYVSWYQQLPGTAPKLLIYDNNKRPSGIPDRFSGSKSGTSATLAITGLQTGDEADYYCGTWDSSLSAVVFGGGTKLTVLG
18 | 0.9 | 17B11.002.007 (antibody, human IgG1, lambda, N297G, V domains shown) VH: QMQLVQSGAEVKKPGASVKVSCKASGYTFTSYDINWVRQATGQGLEWMGWMNPNSGGTGYAQKFQGRVTMTRDTSISTAYMELSSLRSQDTAVYYCARGGDYVFGSYRPYYYYYGMDVWGQGTTVTVSS VL: QSVLTQPPSVSAAPGQKVTISCSGSSSNIGNNYVSWYQQLPGTAPKLLIYDNNKRPSGIPDRFSGSKSGTSATLGITGLQTGDEADYYCGTWDSSLSAVVFGGGTKLTVLG

Target: T2, huGIPR ECD
Experiment: SPR (MASS-1), captured mAb

Row | binding result | Binder
19 | no binding (tested: 200 nM huGIPR ECD) | 2A11.003 (antibody, human IgG1, kappa, N297G, V domains shown, also called iPS:335965; iPS:335967) VH: QVQLVESGGGVVQPGRSLRLSCAASGFSFSSYGMHWVRQAPGKGLEWVAVIWYDGSNKYYEDSVKGRFTISRDNSKNTLFLQVNSLRAEDTAVYYCARGITIFGHGFEYWGQGTLVTVSS VL: EIVLTQSPGTLSLSPGERATLSCRASQIFTSTYLAWYQQKPGQAPRLLIYGASSRATGIPDRFSGSGSGTDFTLTISRLEPEDFAVYYCQQYGSSPRFGQGTRLEIKR
20 | no binding (tested: 200 nM huGIPR ECD) | 2A11.005 (antibody, human IgG1, kappa, N297G, V domains shown, also called iPS:361165; iPS:361167) VH: QVQLVESGGGVVQPGRSLRLSCAASGFSFSSYGMHWVRQAPGKGLEWVAVIWYDASNKYYEDSVKGRFTISRDNSKNTLFLQVNSLRAEDTAVYYCARGITIFGHGFEYWGQGTLVTVSS VL: EIVLTQSPGTLSLSPGERATLSCRASQIFTSTYLAWYQQKPGQAPRLLIYGASSRATGIPDRFSGSGSGTDFTLTISRLEPEDFAVYYCQQYGSSPRFGQGTRLEIKR
21 | no binding (tested: 200 nM huGIPR ECD) | 2A11.004 (antibody, human IgG1, kappa, N297G, V domains shown, also called iPS:361158; iPS:361160) VH: QVQLVESGGGVVQPGRSLRLSCAASGFSFSSYGMHWVRQAPGKGLEWVAVIWYDGSNKYYEDAVKGRFTISRDNSKNTLFLQVNSLRAEDTAVYYCARGITIFGHGFEYWGQGTLVTVSS VL: EIVLTQSPGTLSLSPGERATLSCRASQIFTSTYLAWYQQKPGQAPRLLIYGASSRATGIPDRFSGSGSGTDFTLTISRLEPEDFAVYYCQQYGSSPRFGQGTRLEIKR
